# Measured values reported in patent US20110177071A1 (PERSEID THERAPEUTICS, published 2011).
# T1: human CD80-murine Ig fusion protein (human)
# T1 construct: Bought (Ancell #510-820); also called hCD80-mIg; human CD80-murine IgG
# T1 chain: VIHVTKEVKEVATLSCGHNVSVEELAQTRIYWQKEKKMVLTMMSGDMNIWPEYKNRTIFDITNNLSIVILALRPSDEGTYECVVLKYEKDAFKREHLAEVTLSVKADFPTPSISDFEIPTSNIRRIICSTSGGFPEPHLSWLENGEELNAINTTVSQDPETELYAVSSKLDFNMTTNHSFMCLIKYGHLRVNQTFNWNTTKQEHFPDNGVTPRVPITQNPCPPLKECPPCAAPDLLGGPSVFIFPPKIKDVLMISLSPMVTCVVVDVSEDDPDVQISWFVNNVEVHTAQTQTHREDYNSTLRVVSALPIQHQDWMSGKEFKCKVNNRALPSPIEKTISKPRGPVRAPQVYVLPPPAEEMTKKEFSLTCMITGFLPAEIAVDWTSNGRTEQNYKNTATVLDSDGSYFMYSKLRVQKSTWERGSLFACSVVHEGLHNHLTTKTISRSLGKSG
# T2: full-length human CD86 on HEK293 cells (human, UniProt P42081 24-329)
# T2 sequence: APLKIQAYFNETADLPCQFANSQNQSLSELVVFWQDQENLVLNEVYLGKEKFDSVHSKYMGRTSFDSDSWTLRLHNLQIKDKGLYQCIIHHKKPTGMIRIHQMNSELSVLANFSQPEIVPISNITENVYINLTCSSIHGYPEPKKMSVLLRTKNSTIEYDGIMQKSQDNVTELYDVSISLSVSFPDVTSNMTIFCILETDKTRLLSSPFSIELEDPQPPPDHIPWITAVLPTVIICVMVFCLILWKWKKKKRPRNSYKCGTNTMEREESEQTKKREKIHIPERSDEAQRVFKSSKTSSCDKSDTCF
# T3: human CD86-murine Ig fusion protein (human)
# T3 construct: Bought (Ancell #509-820); also called hCD86-mIg
# T3 chain: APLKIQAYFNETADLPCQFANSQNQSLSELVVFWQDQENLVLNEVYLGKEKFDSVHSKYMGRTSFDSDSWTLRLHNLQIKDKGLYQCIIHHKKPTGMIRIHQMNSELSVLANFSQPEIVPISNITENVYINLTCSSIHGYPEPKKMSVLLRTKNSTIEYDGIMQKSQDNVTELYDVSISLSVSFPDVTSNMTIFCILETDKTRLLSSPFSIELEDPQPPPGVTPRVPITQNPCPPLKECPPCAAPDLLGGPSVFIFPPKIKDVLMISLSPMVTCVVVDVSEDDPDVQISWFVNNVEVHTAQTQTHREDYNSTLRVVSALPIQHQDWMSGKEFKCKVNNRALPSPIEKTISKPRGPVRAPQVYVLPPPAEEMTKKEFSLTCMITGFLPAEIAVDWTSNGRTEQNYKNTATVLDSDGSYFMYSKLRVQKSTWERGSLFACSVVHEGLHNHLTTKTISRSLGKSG
# Experiments:
# [1] = biological target: T1, human CD80-murine Ig fusion protein; assay: SPR Biacore, hCD80-mIg captured
# Experimental: (§1) All Biacore™ analyses were performed on a Biacore™ 2000 system (GE Healthcare) at room temperature (RT, 25° C.). HBS-EP buffer (10 mM HEPES (pH 7.4), 150 mM NaCl, 3 mM EDTA, 0.005% surfactant P20) was used as the flow buffer for all experiments.
# (§2) Rabbit anti-mouse IgG antibody (GE Healthcare, #BR-1005-14) was immobilized on CM5 sensor chips (GE Healthcare, #BR-1000-14) according to the manufacturer's protocol. Antibody was diluted to 30 μg/ml in immobilization buffer (10 mM sodium acetate, pH 5.0 (BR-1003-51)). At a flow rate of 5 μl/minute, sensor chip CM5 was activated with a 35 μl injection of a mixture of 1-Ethyl-3-[3-dimethylaminopropyl]carbodiimide hydrochloride (EDC) and N-hydroxysuccinimide (NHS) (made by mixing equal volumes of 11.5 mg/ml EDC and 75 mg/ml NHS) (GE Healthcare, #BR-1000-50), followed by a 35 μl injection of undiluted antibody. Un-reacted sites were quenched with 35 μl of 1M ethanolamine-HCL, pH 8.5 (GE Healthcare, #BR-1000-50). […] CTLA-4 ligands human CD80-murine Ig (hCD80-mIg) (Ancell, #510-820) or human CD86-murine Ig (hCD86-mIg) (Ancell, #509-820) were bound to antibody-coated sensor chips by injection of 10 μl or 16 μl, respectively, ligand solution (2 μg/ml protein in HBS-EP buffer [10 mM HEPES pH 7.4, 150 mM NaCl, 3 mM EDTA, 0.005% (v/v) surfactant P-20, GE Healthcare, #BR-1001-88]) at a flow rate of 10 μl/min.
# [2] = biological target: T2, full-length human CD86 on HEK293 cells; assay: cell-based or functional assay
# [3] = biological target: T3, human CD86-murine Ig fusion protein; assay: SPR Biacore, hCD86-mIg captured
# Experimental: as §1, §2
Binder,Kd [1] [pM],"Mean IC50 (nM), CD4+ T cell proliferation [2] [nM]",Binding Avidity (Relative to Orencia) [3] [fold],Kd [3] [pM],Binding Avidity (Relative to Orencia) [1] [fold]
D3-54-IgG2 (Fc fusion) MHVAQPAVVLASSRGIASFVCEYASPGKANEVRVTVLRQADSQVTEVCAMTYMKENELTFLDDPICTGTFSGNQVNLTIQGLRAMDTGLYICKVELMYPPPYYLGIGNGTQIYVIDPEPCPDSDERKCCVECPPCPAPPVAGPSVFLFPPKPKDTLMISRTPEVTCVVVDVSHEDPEVQFNWYVDGVEVHNAKTKPREEQFNSTFRVVSVLTVVHQDWLNGKEYKCKVSNKGLPAPIEKTISKTKGQPREPQVYTLPPSREEMTKNQVSLTCLVKGFYPSDIAVEWESNGQPENNYKTTPPMLDSDGSFFLYSKLTVDKSRWQQGNVFSCSVMHEALHNHYTQKSLSLSPG,439 to 1750,0.04,> 40,< 131,
D3-56-IgG2 (Fc fusion) MHVAQPAVVLASSRGIASFVCEYASPGKANEVRVTVLRQADSQVTEVCAMTYMKENELTFLDDPSCTGTFSGNQVNLTIQGLRAMDTGLYICKVELMYPPPYYLGIGNGTQIYVIDPEPCPDSDERKCCVECPPCPAPPVAGPSVFLFPPKPKDTLMISRTPEVTCVVVDVSHEDPEVQFNWYVDGVEVHNAKTKPREEQFNSTFRVVSVLTVVHQDWLNGKEYKCKVSNKGLPAPIEKTISKTKGQPREPQVYTLPPSREEMTKNQVSLTCLVKGFYPSDIAVEWESNGQPENNYKTTPPMLDSDGSFFLYSKLTVDKSRWQQGNVFSCSVMHEALHNHYTQKSLSLSPG,439 to 1750,0.04,> 40,< 131,
D3-72-IgG2 (Fc fusion) MHVAQPAVVLASSRGIASFVCEYESPGKANEIRVTVLRQADSQVTEVCAMTYMKGNELTFLDDPSCTGTFSGNQVNLTIQGLRAMDTGLYICKVELMYPPPYYEGIGNGTQIYVIDPEPCPDSDERKCCVECPPCPAPPVAGPSVFLFPPKPKDTLMISRTPEVTCVVVDVSHEDPEVQFNWYVDGVEVHNAKTKPREEQFNSTFRVVSVLTVVHQDWLNGKEYKCKVSNKGLPAPIEKTISKTKGQPREPQVYTLPPSREEMTKNQVSLTCLVKGFYPSDIAVEWESNGQPENNYKTTPPMLDSDGSFFLYSKLTVDKSRWQQGNVFSCSVMHEALHNHYTQKSLSLSPG,< 439,0.03,> 40,< 131,> 2
D3-65-IgG2 (Fc fusion) MHVAQPAVVLASSRGIASFVCEYASPGKANEVRVTVLRQADSQVTEVCAMTYMKGNELTFLDDPSCTGTFSGNQVNLTIQGLRAMDTGLYICKVELMYPPPYYEGIGNGTQIYVIDPEPCPDSDERKCCVECPPCPAPPVAGPSVFLFPPKPKDTLMISRTPEVTCVVVDVSHEDPEVQFNWYVDGVEVHNAKTKPREEQFNSTFRVVSVLTVVHQDWLNGKEYKCKVSNKGLPAPIEKTISKTKGQPREPQVYTLPPSREEMTKNQVSLTCLVKGFYPSDIAVEWESNGQPENNYKTTPPMLDSDGSFFLYSKLTVDKSRWQQGNVFSCSVMHEALHNHYTQKSLSLSPG,< 439,0.06,> 40,< 131,> 2
D3-71-IgG2 (Fc fusion) MHVAQPAVVLASSRGIASFVCEYASPGKANEIRVTVLRQADSQVTEVCAMTYMKGDELTFLDDPSCTGTFSGNQVNLTIQGLRAMDTGLYICKVELMYPPPYYEGIGNGTQIYVIDPEPCPDSDERKCCVECPPCPAPPVAGPSVFLFPPKPKDTLMISRTPEVTCVVVDVSHEDPEVQFNWYVDGVEVHNAKTKPREEQFNSTFRVVSVLTVVHQDWLNGKEYKCKVSNKGLPAPIEKTISKTKGQPREPQVYTLPPSREEMTKNQVSLTCLVKGFYPSDIAVEWESNGQPENNYKTTPPMLDSDGSFFLYSKLTVDKSRWQQGNVFSCSVMHEALHNHYTQKSLSLSPG,< 439,0.04,> 40,< 131,> 2

# Further lines, results first:
Kd [1] [pM],"Mean IC50 (nM), CD4+ T cell proliferation [2] [nM]",Binding Avidity (Relative to Orencia) [3] [fold],Kd [3] [pM],Binding Avidity (Relative to Orencia) [1] [fold],Binder
< 439,0.05,> 40,< 131,> 2,D3-70-IgG2 (Fc fusion) MHVAQPAVVLASSRGIASFVCEYESPGKANEVRVTVLRQADSQVTEVCAMTYMKGNELTFLDDPSCTGTFSGNQVNLTIQGLRAMDTGLYICKVELMYPPPYYEGIGNGTQIYVIDPEPCPDSDERKCCVECPPCPAPPVAGPSVFLFPPKPKDTLMISRTPEVTCVVVDVSHEDPEVQFNWYVDGVEVHNAKTKPREEQFNSTFRVVSVLTVVHQDWLNGKEYKCKVSNKGLPAPIEKTISKTKGQPREPQVYTLPPSREEMTKNQVSLTCLVKGFYPSDIAVEWESNGQPENNYKTTPPMLDSDGSFFLYSKLTVDKSRWQQGNVFSCSVMHEALHNHYTQKSLSLSPG
< 439,0.06,> 40,< 131,> 2,D3-73-IgG2 (Fc fusion) MHVAQPAVVLASSRGIASFVCEYESPGKANEVRVTVLRQADSQVTEVCAMTYMKGNELTFLDDPICTGTFSGNQVNLTIQGLRAMDTGLYICKVELMYPPPYYEGIGNGTQIYVIDPEPCPDSDERKCCVECPPCPAPPVAGPSVFLFPPKPKDTLMISRTPEVTCVVVDVSHEDPEVQFNWYVDGVEVHNAKTKPREEQFNSTFRVVSVLTVVHQDWLNGKEYKCKVSNKGLPAPIEKTISKTKGQPREPQVYTLPPSREEMTKNQVSLTCLVKGFYPSDIAVEWESNGQPENNYKTTPPMLDSDGSFFLYSKLTVDKSRWQQGNVFSCSVMHEALHNHYTQKSLSLSPG
< 439,0.04,> 40,< 131,> 2,D3-62-IgG2 (Fc fusion) MHVAQPAVVLASSRGIASFVCEYASPGKANEIRVTVLRQADSQVTEVCAMTYMKEDELTFLDDPSCTGTFSGNQVNLTIQGLRAMDTGLYICKVELMYPPPYYLGIGNGTQIYVIDPEPCPDSDERKCCVECPPCPAPPVAGPSVFLFPPKPKDTLMISRTPEVTCVVVDVSHEDPEVQFNWYVDGVEVHNAKTKPREEQFNSTFRVVSVLTVVHQDWLNGKEYKCKVSNKGLPAPIEKTISKTKGQPREPQVYTLPPSREEMTKNQVSLTCLVKGFYPSDIAVEWESNGQPENNYKTTPPMLDSDGSFFLYSKLTVDKSRWQQGNVFSCSVMHEALHNHYTQKSLSLSPG
< 439,0.03,> 40,< 131,> 2,D3-69-IgG2 (Fc fusion) MHVAQPAVVLASSRGIASFVCEYESPGKANEIRVTVLRQADSQVTEVCAMTYMKGDELTFLDDPSCTGTFSGNQVNLTIQGLRAMDTGLYICKVELMYPPPYYEGIGNGTQIYVIDPEPCPDSDERKCCVECPPCPAPPVAGPSVFLFPPKPKDTLMISRTPEVTCVVVDVSHEDPEVQFNWYVDGVEVHNAKTKPREEQFNSTFRVVSVLTVVHQDWLNGKEYKCKVSNKGLPAPIEKTISKTKGQPREPQVYTLPPSREEMTKNQVSLTCLVKGFYPSDIAVEWESNGQPENNYKTTPPMLDSDGSFFLYSKLTVDKSRWQQGNVFSCSVMHEALHNHYTQKSLSLSPG
